From article PMC3057327 (Methods (San Diego, Calif.), 2011)

B1: htt^NTQ20P10K2 (huntingtin N-terminal fragment peptide) (peptide)
chain: MATLEKLMKAFESLKSFQQQQQQQQQQQQQQQQQQQQPPPPPPPPPPKK
B2: K2Q23K2 (peptide)
chain: KKQQQQQQQQQQQQQQQQQQQQQQQKK

Legend:
[1] = target: the molecule itself; experiment: aggregates isolated by centrifugation + limited proteolysis
sedimentation assay = target: the molecule itself; experiment: sedimentation assay

Protein | binding result [1] | binding result (sedimentation assay)
B1 | binds | –
B2 | – | binds
